Test results published in patent publication US20060228367A1 (AstraZeneca / MedImmune, published 2006).
Changes are numbered by the printed parent chain. Like-named read-outs stand apart in the source and are kept apart here.

B1: monoclonal antibody 168-A5-338-284 (antibody, V domains shown)
VH: QVQLKESGPGLVAPSQSLSITCTVSGFSLSSYGVHWVRQSPGKGLEWLGVMWGDGSTNYHSGLISRLTISKDSSKSQVFLKLNSLQTDDTATYYCGKSFGVYAVDYWGQGTSVTVSS
VL: DIQMTQTTSSLSASLGDRVTINCRASQDVNNYLNWYQQKPDGTVKLLIYYTSMLHSGVPSRFSGSGSETDYSLTITNLEQEDIATYFCQQGETLPPTFGGGTKVEIK
notes: Mouse hybridoma antibody purified on protein A; also called mAb338
B2: monoclonal antibody 168-A5-234-114 (antibody, V domains shown)
VH: B1 VH with S30T, S31D, H35S, S40P, M51I, S56N, G62A, T68S, S73N, V104M
VL: B1 VL with D1E, A25T, V29T, L33I, E68G, T76S, E92D
notes: Mouse hybridoma antibody purified on protein A; also called mAb234; mAb 234

Columns and labels:
[1] = target: T1, F protein of hMPV strain NL\1\00 (subtype A1), on virus (human metapneumovirus, isolate NL/1/00, UniProt Q6WB98 19-538); test: cell-based or functional assay
[2] = target: T2, F protein of hMPV strain NL\17\00 (subtype A2), on virus (human metapneumovirus, isolate NL/17/00, UniProt Q6WB98 19-539); test: cell-based or functional assay
[3] = target: T3, F protein of hMPV strain NL\1\99 (subtype B1), on virus (human metapneumovirus, isolate NL/1/99, UniProt Q6WB98 19-539); test: cell-based or functional assay
[4] = target: T4, F protein of hMPV strain NL\1\94 (subtype B2), on virus (human metapneumovirus, isolate NL/1/94, UniProt Q6WB98 19-539); test: cell-based or functional assay
[5] = target: T1, F protein of hMPV strain NL\1\00 …; test: cell-based or functional assay; remark: listed apart in the source
[6] = target: T2, F protein of hMPV strain NL\17\00 …; test: cell-based or functional assay; remark: listed apart in the source
[7] = target: T3, F protein of hMPV strain NL\1\99 …; test: cell-based or functional assay; remark: listed apart in the source
[8] = target: T4, F protein of hMPV strain NL\1\94 …; test: cell-based or functional assay; remark: listed apart in the source
[9] = target: T1, F protein of hMPV strain NL\1\00 …; test: cell-based or functional assay; remark: listed apart in the source
[10] = target: T3, F protein of hMPV strain NL\1\99 …; test: cell-based or functional assay; remark: listed apart in the source
[11] = target: T1, F protein of hMPV strain NL\1\00 …; test: cell-based or functional assay; remark: listed apart in the source
[12] = target: T2, F protein of hMPV strain NL\17\00 …; test: cell-based or functional assay; remark: listed apart in the source
[13] = target: T3, F protein of hMPV strain NL\1\99 …; test: cell-based or functional assay; remark: listed apart in the source
[14] = target: T4, F protein of hMPV strain NL\1\94 …; test: cell-based or functional assay; remark: listed apart in the source
[15] = target: T5, soluble histidine-tagged hMPV F protein from NL\1\00 (human metapneumovirus, isolate NL/1/00, UniProt Q6WB98 19-490); test: Biacore SPR (summary table)
T5 construct: the reverse primer ends the F part at ...AEKGNTG before the tag; also called sFNL\1\00; soluble FNL\1\00

[16] = target: T6, soluble histidine-tagged hMPV F protein from NL\1\99 (human metapneumovirus, isolate NL/1/99, UniProt Q6WB98 19-490); test: Biacore SPR (summary table)
T6 construct: also called sFNL\1\99; soluble FNL\1\99

[17] = target: T5, soluble histidine-tagged hMPV F protein …; test: Biacore SPR (comparison table; virus type A)
[18] = target: T6, soluble histidine-tagged hMPV F protein …; test: Biacore SPR (comparison table; virus type B)
[19] = target: T6, soluble histidine-tagged hMPV F protein …; test: Biacore SPR; average of the two F-99-1 surfaces
[20] = target: T6, soluble histidine-tagged hMPV F protein …; test: Biacore SPR; F-99-1 immobilised at 80 RU, mAb injected
[21] = target: T5, soluble histidine-tagged hMPV F protein …; test: Biacore SPR; F-00-1 immobilised at 134 RU, mAb injected
[22] = target: T6, soluble histidine-tagged hMPV F protein …; test: Biacore SPR; F-99-1 immobilised at 300 RU, mAb injected
[23] = target: T6, soluble histidine-tagged hMPV F protein …; test: Biacore 3000 SPR; antigen immobilised on CM5 at 80 RU, mAb injected
[24] = target: T5, soluble histidine-tagged hMPV F protein …; test: Biacore 3000 SPR; antigen immobilised on CM5 at 134 RU, mAb injected
[25] = target: T6, soluble histidine-tagged hMPV F protein …; test: Biacore SPR; F-99-1 immobilised at 146 RU, mAb injected

Row | Binder | IC50 (neutralization titer) [1] | IC50 (neutralization titer) [2] | IC50 (neutralization titer) [3] | IC50 (neutralization titer) [4] | IC50 (neutralization titer) [5] | IC50 (neutralization titer) [6] | IC50 (neutralization titer) [7] | IC50 (neutralization titer) [8] | IC50 in vitro neutralization [9] | IC50 in vitro neutralization [10] | IC50 (virus neutralization) [11] | IC50 (virus neutralization) [12] | IC50 (virus neutralization) [13] | IC50 (virus neutralization) [14] | Kd [15] | Kd [16] | Kd [17] | kon [17] | Kd [18] | kon [18] | further results
1 | B1 | 0.375 µg/mL | 0.81 µg/mL | 0.03 µg/mL | 0.165 µg/mL | 2.5 nM | 5.4 nM | 0.2 nM | 1.1 nM | 0.4 µg/mL | 0.03 µg/mL | 0.38 µg/mL | 0.8 µg/mL | 0.03 µg/mL | 0.17 µg/mL | 1.7 nM | 1.4 nM | 1.74 nM | 158000 M⁻¹ s⁻¹ | 1.42 nM | 192000 M⁻¹ s⁻¹ | Kd [19]: 1.73 nM; koff [19]: 0.000282 s⁻¹; kon [19]: 163000 M⁻¹ s⁻¹; Kd [20]: 1.42 nM; koff [20]: 0.000272 s⁻¹; kon [20]: 192000 M⁻¹ s⁻¹; Kd [21]: 1.74 nM; koff [21]: 0.000276 s⁻¹; kon [21]: 158000 M⁻¹ s⁻¹; Kd [22]: 2.18 nM; koff [22]: 0.000293 s⁻¹; kon [22]: 134000 M⁻¹ s⁻¹; Kd [23]: 1.42 nM; koff [23]: 0.000272 s⁻¹; kon [23]: 192000 M⁻¹ s⁻¹; Kd [24]: 1.74 nM; koff [24]: 0.000276 s⁻¹; kon [24]: 158000 M⁻¹ s⁻¹
2 | B2 | 0.585 µg/mL | 1.16 µg/mL | 0.0075 µg/mL | 0.18 µg/mL | 3.9 nM | 7.7 nM | 0.05 nM | 1.2 nM | 0.6 µg/mL | 0.01 µg/mL | 0.59 µg/mL | 1.2 µg/mL | 0.01 µg/mL | 0.18 µg/mL | 4.5 nM | 2.4 nM | 4.49 nM | 783000 M⁻¹ s⁻¹ | 2.41 nM | 192000 M⁻¹ s⁻¹ | Kd [19]: 2.83 nM; koff [19]: 0.000382 s⁻¹; kon [19]: 135000 M⁻¹ s⁻¹; Kd [20]: 2.41 nM; koff [20]: 0.000463 s⁻¹; kon [20]: 192000 M⁻¹ s⁻¹; Kd [21]: 4.49 nM; koff [21]: 0.000352 s⁻¹; kon [21]: 78300 M⁻¹ s⁻¹; Kd [25]: 3.83 nM; koff [25]: 0.000302 s⁻¹; kon [25]: 78900 M⁻¹ s⁻¹; Kd [23]: 2.41 nM; koff [23]: 0.000463 s⁻¹; kon [23]: 192000 M⁻¹ s⁻¹; Kd [24]: 4.49 nM; koff [24]: 0.000352 s⁻¹; kon [24]: 78300 M⁻¹ s⁻¹
